{
  "source": "IntAct's records for PubMed 27462807",
  "parents": {"B1": {"name": "TP53-binding protein 1 (Homo sapiens), Q12888 (parent)", "chain": "MDPTGSQLDSDFSQQDTPCLIIEDSQPESQVLEDDSGSHFSMLSRHLPNLQTHKENPVLDVVSNPEQTAGEERGDGNSGFNEHLKENKVADPVDSSNLDTCGSISQVIEQLPQPNRTSSVLGMSVESAPAVEEEKGEELEQKEKEKEEDTSGNTTHSLGAEDTASSQLGFGVLELSQSQDVEENTVPYEVDKEQLQSVTTNSGYTRLSDVDANTAIKHEEQSNEDIPIAEQSSKDIPVTAQPSKDVHVVKEQNPPPARSEDMPFSPKASVAAMEAKEQLSAQELMESGLQIQKSPEPEVLSTQEDLFDQSNKTVSSDGCSTPSREEGGCSLASTPATTLHLLQLSGQRSLVQDSLSTNSSDLVAPSPDAFRSTPFIVPSSPTEQEGRQDKPMDTSVLSEEGGEPFQKKLQSGEPVELENPPLLPESTVSPQASTPISQSTPVFPPGSLPIPSQPQFSHDIFIPSPSLEEQSNDGKKDGDMHSSSLTVECSKTSEIEPKNSPEDLGLSLTGDSCKLMLSTSEYSQSPKMESLSSHRIDEDGENTQIEDTEPMSPVLNSKFVPAENDSILMNPAQDGEVQLSQNDDKTKGDDTDTRDDISILATGCKGREETVAEDVCIDLTCDSGSQAVPSPATRSEALSSVLDQEEAMEIKEHHPEEGSSGSEVEEIPETPCESQGEELKEENMESVPLHLSLTETQSQGLCLQKEMPKKECSEAMEVETSVISIDSPQKLAILDQELEHKEQEAWEEATSEDSSVVIVDVKEPSPRVDVSCEPLEGVEKCSDSQSWEDIAPEIEPCAENRLDTKEEKSVEYEGDLKSGTAETEPVEQDSSQPSLPLVRADDPLRLDQELQQPQTQEKTSNSLTEDSKMANAKQLSSDAEAQKLGKPSAHASQSFCESSSETPFHFTLPKEGDIIPPLTGATPPLIGHLKLEPKRHSTPIGISNYPESTIATSDVMSESMVETHDPILGSGKGDSGAAPDVDDKLCLRMKLVSPETEASEESLQFNLEKPATGERKNGSTAVAESVASPQKTMSVLSCICEARQENEARSEDPPTTPIRGNLLHFPSSQGEEEKEKLEGDHTIRQSQQPMKPISPVKDPVSPASQKMVIQGPSSPQGEAMVTDVLEDQKEGRSTNKENPSKALIERPSQNNIGIQTMECSLRVPETVSAATQTIKNVCEQGTSTVDQNFGKQDATVQTERGSGEKPVSAPGDDTESLHSQGEEEFDMPQPPHGHVLHRHMRTIREVRTLVTRVITDVYYVDGTEVERKVTEETEEPIVECQECETEVSPSQTGGSSGDLGDISSFSSKASSLHRTSSGTSLSAMHSSGSSGKGAGPLRGKTSGTEPADFALPSSRGGPGKLSPRKGVSQTGTPVCEEDGDAGLGIRQGGKAPVTPRGRGRRGRPPSRTTGTRETAVPGPLGIEDISPNLSPDDKSFSRVVPRVPDSTRRTDVGAGALRRSDSPEIPFQAAAGPSDGLDASSPGNSFVGLRVVAKWSSNGYFYSGKITRDVGAGKYKLLFDDGYECDVLGKDILLCDPIPLDTEVTALSEDEYFSAGVVKGHRKESGELYYSIEKEGQRKWYKRMAVILSLEQGNRLREQYGLGPYEAVTPLTKAADISLDNLVEGKRKRRSNVSSPATPTASSSSSTTPTRKITESPRASMGVLSGKRKLITSEEERSPAKRGRKSATVKPGAVGAGEFVSPCESGDNTGEPSALEEQRGPLPLNKTLFLGYAFLLTMATTSDKLASRSKLPDGPTGSSEEEEEFLEIPPFNKQYTESQLRAGAGYILEDFNEAQCNTAYQCLLIADQHCRTRKYFLCLASGIPCVSHVWVHDSCHANQLQNYRNYLLPAGYSLEEQRILDWQPRENPFQNLKVLLVSDQQQNFLELWSEILMTGGAASVKQHHSSAHNKDIALGVFDVVVTDPSCPASVLKCAEALQLPVVSQEWVIQCLIVGERIGFKQHPKYKHDYVSH"}},
  "data": [
    {"variants_of": "B1", "conditions": "with H2BC10, P62807", "values": [
      {"variant": "T1609C", "effect of a mutation on the interaction": "with no effect"}
    ]},
    {"variants_of": "B1", "conditions": "with H2BC10, P62807", "remark": "another data set of the same source", "values": [
      {"variant": "K1628C", "effect of a mutation on the interaction": "decreasing interaction"}
    ]}
  ]
}
